Test results taken from paper doi:10.1101/2024.09.18.613619 (bioRxiv, 2024).

Target: T1, Rpn8 (Saccharomyces cerevisiae proteasome lid subunit) (S. cerevisiae, UniProt Q08723 1-338)
T1 sequence (looked up): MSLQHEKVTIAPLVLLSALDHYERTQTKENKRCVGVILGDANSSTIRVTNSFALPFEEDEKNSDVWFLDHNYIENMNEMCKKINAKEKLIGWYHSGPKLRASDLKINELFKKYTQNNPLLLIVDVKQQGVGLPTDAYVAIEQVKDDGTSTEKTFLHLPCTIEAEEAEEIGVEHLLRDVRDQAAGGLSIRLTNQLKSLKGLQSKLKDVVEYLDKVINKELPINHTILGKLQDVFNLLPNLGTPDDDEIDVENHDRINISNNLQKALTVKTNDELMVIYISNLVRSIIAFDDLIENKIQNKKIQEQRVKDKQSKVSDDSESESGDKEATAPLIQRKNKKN
Assay: two-hybrid

B1: Rpn11 (Saccharomyces cerevisiae proteasome lid subunit) (natural protein, S. cerevisiae, UniProt P43588 1-306, looked up)
chain: MERLQRLMMNSKVGSADTGRDDTKETVYISSIALLKMLKHGRAGVPMEVMGLMLGEFVDDYTVNVVDVFAMPQSGTGVSVEAVDDVFQAKMMDMLKQTGRDQMVVGWYHSHPGFGCWLSSVDVNTQKSFEQLNSRAVAVVVDPIQSVKGKVVIDAFRLIDTGALINNLEPRQTTSNTGLLNKANIQALIHGLNRHYYSLNIDYHKTAKETKMLMNLHKEQWQSGLKMYDYEEKEESNLAATKSMVKIAEQYSKRIEEEKELTEEELKTRYVGRQDPKKHLSETADETLENNIVSVLTAGVNSVAIK
**Q.** B1 was tested. Which “β-galactosidase activity relative to the GlRpn8-GlRpn11 pair” value did it give?
**A.** Its value is about 2 fold.
